Measured values taken from publication PMC5041479.
Read-outs that look alike come from different tables or passages of the source.

Tests used:
Pif1p [1] = target: T1, Pif1p (yeast, UniProt P07271 40-859); test: fluorescence anisotropy
T1 sequence: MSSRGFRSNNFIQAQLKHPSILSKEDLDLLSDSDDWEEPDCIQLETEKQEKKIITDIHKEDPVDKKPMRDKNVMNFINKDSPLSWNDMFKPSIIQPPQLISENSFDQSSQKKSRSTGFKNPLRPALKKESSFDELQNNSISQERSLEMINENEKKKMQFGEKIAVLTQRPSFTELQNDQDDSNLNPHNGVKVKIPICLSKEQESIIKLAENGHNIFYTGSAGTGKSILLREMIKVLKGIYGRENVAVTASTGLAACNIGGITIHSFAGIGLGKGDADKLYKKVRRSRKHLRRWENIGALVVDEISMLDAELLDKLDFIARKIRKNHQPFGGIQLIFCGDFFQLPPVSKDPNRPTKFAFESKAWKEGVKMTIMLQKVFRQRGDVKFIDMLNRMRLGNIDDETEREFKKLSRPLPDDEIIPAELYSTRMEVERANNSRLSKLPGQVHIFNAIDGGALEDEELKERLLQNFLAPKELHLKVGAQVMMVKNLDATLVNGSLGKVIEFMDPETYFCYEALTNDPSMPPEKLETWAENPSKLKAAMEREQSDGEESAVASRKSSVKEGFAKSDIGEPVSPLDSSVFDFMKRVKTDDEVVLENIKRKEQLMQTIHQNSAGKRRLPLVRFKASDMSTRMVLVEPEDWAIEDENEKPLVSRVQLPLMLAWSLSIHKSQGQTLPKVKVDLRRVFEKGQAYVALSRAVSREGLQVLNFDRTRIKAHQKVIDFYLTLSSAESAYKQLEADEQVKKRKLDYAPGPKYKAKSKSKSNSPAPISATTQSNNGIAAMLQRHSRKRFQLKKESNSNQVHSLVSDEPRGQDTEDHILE

Pif1p [2] = target: T1, Pif1p; test: fluorescence anisotropy; remark: listed apart in the source

TTTTTTTTTTTT (ssDNA) [FAM-T12] showed a Kd (Pif1p [1]) of 25.2 nM.

GTGTGTGTGGTG (ssDNA) [FAM-GR12] showed a Kd (Pif1p [2]) of 8.7 nM.
